Bridge positions count the residues as written; N and C are the ends.
B1: SEQ ID NO:266 (peptide)
peptide: Ac-AGWVECWWKSGQCYEFGTGGGK-NH2
modifications: cysteine pairing not given here; also: C-terminal Lys fluorescein-labeled for some assays, unlabeled for others
B2: SEQ ID NO:487 (peptide)
peptide: Ac-GDSSVCFEYSWGGEVCFRYDPGGGK-NH2
modifications: disulfide 6-16 (inferred); not fully specified; also: C-terminal Lys fluorescein-labeled in some assay forms
B3: SEQ ID NO:488 (peptide)
peptide: Ac-GDSRVCWEYSWGGQICLGYDPGGGK-NH2
modifications: disulfide 6-16 (inferred); not fully specified; also: C-terminal Lys fluorescein-labeled in some assay forms
B4: SEQ ID NO:284 (peptide)
peptide: Ac-AGVGWVECYQSTGFCYHSRDGTGGGK-NH2
modifications: cysteine pairing not given here; also: C-terminal Lys fluorescein-labeled in some assays
B5: SEQ ID NO:297 (peptide)
peptide: Ac-GDDSYCMMNEKGWWNCYLYDPGGGK-NH2
modifications: cysteine pairing not given here; also: C-terminal Lys fluorescein-labeled in some assays

Legend:
[1] = target: T1, human KDR-Fc fusion (R&D Systems #357-KD-050) (human, UniProt P35968 20-764); assay: fluorescence anisotropy, fluorescein-labeled peptide
T1 construct: bought
T1 sequence (P35968 20-764): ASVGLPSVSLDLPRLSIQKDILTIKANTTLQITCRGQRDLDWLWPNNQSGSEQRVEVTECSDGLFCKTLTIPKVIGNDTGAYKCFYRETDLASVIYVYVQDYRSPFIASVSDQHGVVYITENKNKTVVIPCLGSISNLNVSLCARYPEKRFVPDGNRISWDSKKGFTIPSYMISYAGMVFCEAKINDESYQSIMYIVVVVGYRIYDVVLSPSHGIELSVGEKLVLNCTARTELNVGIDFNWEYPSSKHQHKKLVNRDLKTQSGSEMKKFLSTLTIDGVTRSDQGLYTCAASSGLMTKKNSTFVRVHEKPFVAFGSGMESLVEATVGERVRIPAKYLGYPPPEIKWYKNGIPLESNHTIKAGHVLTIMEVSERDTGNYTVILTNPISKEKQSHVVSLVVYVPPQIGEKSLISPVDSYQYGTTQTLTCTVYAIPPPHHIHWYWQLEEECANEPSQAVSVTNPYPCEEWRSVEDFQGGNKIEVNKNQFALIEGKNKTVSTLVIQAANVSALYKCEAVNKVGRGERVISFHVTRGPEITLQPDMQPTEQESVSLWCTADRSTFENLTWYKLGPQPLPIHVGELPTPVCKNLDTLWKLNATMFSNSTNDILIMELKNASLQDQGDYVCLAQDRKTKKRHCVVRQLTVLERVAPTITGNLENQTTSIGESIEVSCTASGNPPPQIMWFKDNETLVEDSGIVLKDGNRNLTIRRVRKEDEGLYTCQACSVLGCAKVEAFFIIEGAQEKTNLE

[2] = target: T1, human KDR-Fc fusion (R&D Systems …); assay: phage binding screen on KDR-Fc; class legend in paragraph 246

Row | Binder | Kd [1] | further results
1 | Ac-SGRLDCDKVFSGPYGKVCVSYGSGGGK-NH2 (disulfide 6-18 (inferred); not fully specified) [SEQ ID NO:316] | 1050 nM | –
2 | B1 | 1300 nM | –
3 | Ac-AGDSWVECDAQTGFCYSFLYGTGGGK-NH2 (disulfide 8-15 (inferred); not fully specified) [SEQ ID NO:287] | 2300 nM | –
4 | Ac-AGSDWCRVDWYYCWLMGTGGGK-NH2 (disulfide 6-13 (inferred); not fully specified) [SEQ ID NO:270] | 64 nM | –
5 | Ac-AGPDWCAADWYYCYITGTGGGK-NH2 (disulfide 6-13 (inferred); not fully specified) [SEQ ID NO:275] | 57 nM | –
6 | Ac-AGWIQCNSITGHCTSGGTGGGK-NH2 (disulfide 6-13 (inferred); not fully specified) [SEQ ID NO:268] | 240 nM | –
7 | Ac-AQQVQYQFFLGTPRYEQWDLDKGGK-NH2 (not fully specified) [SEQ ID NO:304] | 1700 nM | –
8 | Ac-AGANWCEEDWYYCWITGTGGGK-NH2 (disulfide 6-13 (inferred); not fully specified) [SEQ ID NO:272] | 97 nM | –
9 | Ac-AGVNWCEEDWYYCWITGTGGGK-NH2 (disulfide 6-13 (inferred); not fully specified) [SEQ ID NO:280] | 260 nM | –
10 | Ac-AGANWCEEDWYYCYITGTGGGK-NH2 (disulfide 6-13 (inferred); not fully specified) [SEQ ID NO:281] | 180 nM | –
11 | Ac-AGPDWCEEDWYYCWITGTGGGK-NH2 (disulfide 6-13 (inferred); not fully specified) [SEQ ID NO:273] | 75 nM | –
12 | Ac-AGSNWCEEDWYYCYITGTGGGK-NH2 (disulfide 6-13 (inferred); not fully specified) [SEQ ID NO:274] | 46 nM | –
13 | Ac-AGANWCEEDWYYCFITGTGGGK-NH2 (disulfide 6-13 (inferred); not fully specified) [SEQ ID NO:271] | 310 nM | –
14 | Ac-AGRNWCEEDWYYCFITGTGGGK-NH2 (disulfide 6-13 (inferred); not fully specified) [SEQ ID NO:279] | 190 nM | –
15 | Ac-GSNSHCYIWDGMWLCFPDAPGGGK-NH2 (disulfide 6-15 (inferred); not fully specified) [SEQ ID NO:315] | 740 nM | –
16 | SDWCRVDWYYCWLM [phage isolate SDWCRVDWYYCWLM] | – | binding result [2]: binds
17 | Ac-AGFTWVECHQATGRCVEWTTGTGGGK-NH2 (disulfide 8-15 (inferred); not fully specified) [SEQ ID NO:285] | 2000 nM | –
18 | Ac-AGPEWCEVDWYYCWLLGTGGGK-NH2 (disulfide 6-13 (inferred); not fully specified) [SEQ ID NO:276] | 75 nM | –
19 | B2 | 58 nM | –
20 | Ac-AGDWGCSLGNWYWCSTEGTGGGK-NH2 (disulfide 6-14 (inferred); not fully specified) [SEQ ID NO:313] | 2000 nM | –
21 | Ac-SGRLDCDKVFSGPHGKICVNYGSGGGK-NH2 (disulfide 6-18 (inferred); not fully specified) [SEQ ID NO:317] | ~2000 nM | –
22 | B3 | 320 nM | –

Row | Binder | Kd [1] | further results
23 | Ac-AGVWECAKTFPFCHWFGTGGGK-NH2 (disulfide 6-13 (inferred); not fully specified) [SEQ ID NO:265] | 2600 nM | –
24 | Ac-AQRSWYLGPPYYEEWDPIPNGGK-NH2 (not fully specified) [SEQ ID NO:309] | 1800 nM | –
25 | Ac-SGRTTCHHQISGPHGKICVNYGSGGGK-NH2 (disulfide 6-18 (inferred); not fully specified) [SEQ ID NO:318] | 650 nM | –
26 | Ac-GDPAQCWESNYQGIFFCDNPDPGGGK-NH2 (disulfide 6-17 (inferred); not fully specified) [SEQ ID NO:298] | 2300 nM | –
27 | Ac-AGERWVECRAETGFCYTWVSGTGGGK-NH2 (disulfide 8-15 (inferred); not fully specified) [SEQ ID NO:289] | 2100 nM | –
28 | Ac-AGGGWVECYWATGRCIEFAGGTGGGK-NH2 (disulfide 8-15 (inferred); not fully specified) [SEQ ID NO:288] | – | binding result [1]: no binding
29 | Ac-AGQAWVECYAETGYCWPRSWGTGGGK-NH2 (disulfide 8-15 (inferred); not fully specified) [SEQ ID NO:282] | 710 nM | –
30 | Ac-AGQAWIECYAEDGYCWPRSWGTGGGK-NH2 (disulfide 8-15 (inferred); not fully specified) [SEQ ID NO:283] | 1400 nM | –
31 | PKWCEEDWYYCMIT [phage isolate PKWCEEDWYYCMIT] | – | binding result [2]: binds
32 | Ac-AGSKWCEQDWYYCWLLGTGGGK-NH2 (disulfide 6-13 (inferred); not fully specified) [SEQ ID NO:278] | 400 nM | –
33 | B4 | 1300 nM | –
34 | Ac-AGPWTCWLEDHLACAMLGTGGGK-NH2 (disulfide 6-14 (inferred); not fully specified) [SEQ ID NO:312] | 3900 nM | –
35 | Ac-SGAHQCHHWTSGPYGEVCFNYGSGGGK-NH2 (disulfide 6-18 (inferred); not fully specified) [SEQ ID NO:319] | ~2000 nM | –
36 | Ac-AGVAWVECYQTTGKCYTFRGGTGGGK-NH2 (disulfide 8-15 (inferred); not fully specified) [SEQ ID NO:291] | ~2000 nM | –
37 | Ac-AGEGWVECFANTGACFTYPRGTGGGK-NH2 (disulfide 8-15 (inferred); not fully specified) [SEQ ID NO:292] | 2100 nM | –
38 | Ac-GDPPLCYFVGTQEWHHCNPFDPGGGK-NH2 (disulfide 6-17 (inferred); not fully specified) [SEQ ID NO:296] | 600 nM | –
39 | B5 | 1300 nM | –
40 | ANWCEEDWYYCFIT [phage isolate ANWCEEDWYYCFIT] | – | binding result [2]: binds
41 | ANWCEEDWYYCWIT [phage isolate ANWCEEDWYYCWIT] | – | binding result [2]: binds
42 | ANWCEEDWYYCYIT [phage isolate ANWCEEDWYYCYIT] | – | binding result [2]: binds
43 | Ac-AGGGWVECRAETGHCQEYRLGTGGGK-NH2 (disulfide 8-15 (inferred); not fully specified) [SEQ ID NO:290] | 1600 nM | –
44 | Ac-GDNWKCEYTQGYDYTECVYLDPGGGK-NH2 (disulfide 6-17 (inferred); not fully specified) [SEQ ID NO:302] | 820 nM | –

— patent EP2014310A2 (Dyax Corporation, dated 2009)
